In one assay the target is human recombinant IL-17A (human, UniProt Q16552 24-155, limits assumed). As to the kind of experiment: cell-based or functional assay.
In assay [1] the target is T1, IL-2-Rβ (IL-2 receptor β chain, R&D Systems) (UniProt P14784 27-239).
T1 construct: also called IL-2-sRβ
T1 sequence (looked up): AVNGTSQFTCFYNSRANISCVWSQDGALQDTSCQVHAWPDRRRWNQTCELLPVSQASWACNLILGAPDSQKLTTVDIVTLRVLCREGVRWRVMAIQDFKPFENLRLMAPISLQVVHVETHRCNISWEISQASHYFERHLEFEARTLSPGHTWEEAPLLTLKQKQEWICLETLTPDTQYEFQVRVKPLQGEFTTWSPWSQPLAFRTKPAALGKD
As to the kind of experiment: SPR (Biacore), fusion captured on anti-human F(ab)2, 100 nM IL-2-Rβ injected. A general note: In SPR one partner is held on a chip, and binding of the other changes the refractive index at the surface.

Assay [2] has as its target T2, GM-CSF receptor, cognate for the human GM-CSF constructs (GM-CSF-Ra, R&D Systems) (UniProt P15509 23-320).
T2 construct: also called cognate GM-CSF receptor
T2 sequence (looked up): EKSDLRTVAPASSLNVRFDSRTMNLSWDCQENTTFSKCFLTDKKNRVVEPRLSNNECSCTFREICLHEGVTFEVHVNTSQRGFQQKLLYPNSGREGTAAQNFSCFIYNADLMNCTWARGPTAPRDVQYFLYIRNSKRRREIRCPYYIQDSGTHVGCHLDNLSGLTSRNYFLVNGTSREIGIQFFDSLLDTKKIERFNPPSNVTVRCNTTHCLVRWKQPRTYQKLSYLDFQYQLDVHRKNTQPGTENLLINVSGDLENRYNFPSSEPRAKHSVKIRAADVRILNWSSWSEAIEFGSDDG
As to the kind of experiment: SPR (Biacore), fusion captured on anti-human F(ab)2, 100 nM GM-CSF receptor injected.

The next assay has as its target Lysozyme (R&D Systems) (UniProt P00698 19-147). The assay is described as follows: SPR, Fab construct captured via anti-human F(ab)2, lysozyme 0.1-10 nM, Langmuir model.

B1: CA645 Fab-Fwk3 CA497 dsscFv (vLvH) (bispecific antibody)
heavy: EVQLLESGGGLVQPGGSLRLSCAVSGIDLSNYAINWVRQAPGKGLEWIGIIWASGTTFYATWAKGRFTISRDNSGGGGSGGGGSAIQLTQSPSSLSASVGDRVTITCKASESVSSSMYSYMHWYQQKPGKAPKLLIYRASNLESGVPSRFSGSGSGTDFTLTISSLQPEDFATYYCQQSWTAPRTFGCGTKVEIKGGGGSGGGGSGGGGSEVQLVESGGGLVKPGGSLRLSCAASGVIFSDYYMAWVRQAPGKCLEWVASINFNADISYYRESVKGRFTISRDDSKNTLYLQMNSLKTEDTAVYYCTTDANRQNYDWFAYWGQGTLVTVSSGGGGSGGGGSKNTVYLQMNSLRAEDTAVYYCARTVPGYSTAPYFDLWGQGTLVTVSSASTKGPSVFPLAPSSKSTSGGTAALGCLVKDYFPEPVTVSWNSGALTSGVHTFPAVLQSSGLYSLSSVVTVPSSSLGTQTYICNVNHKPSNTKVDKKVEPKSC
light: DIQMTQSPSSVSASVGDRVTITCQSSPSVWSNFLSWYQQKPGKAPKLLIYEASKLTSGVPSRFSGSGSGTDFTLTISSLQPEDFATYYCGGGYSSISDTTFGGGTKVEIKRTVAAPSVFIFPPSDEQLKSGTASVVCLLNNFYPREAKVQWKVDNALQSGNSQESVTEQDSKDSTYSLSSTLTLSKADYEKHKVYACEVTHQGLSSPVTKSFNRGEC
On to B1, for which, in the assay with human recombinant IL-17A, the “IL-17A EC50 (ng/ml), neutralisation of IL-17A (IL-6 secretion by Hela cells), with HSA” value was 10.8 ng/mL and the “IL-17A EC50 (ng/ml), neutralisation of IL-17A (IL-6 secretion by Hela cells), without HSA” value was 10.5 ng/mL.

B2: CA645/IL-15Fwk3 with 2xG4S linker (Fab)
heavy: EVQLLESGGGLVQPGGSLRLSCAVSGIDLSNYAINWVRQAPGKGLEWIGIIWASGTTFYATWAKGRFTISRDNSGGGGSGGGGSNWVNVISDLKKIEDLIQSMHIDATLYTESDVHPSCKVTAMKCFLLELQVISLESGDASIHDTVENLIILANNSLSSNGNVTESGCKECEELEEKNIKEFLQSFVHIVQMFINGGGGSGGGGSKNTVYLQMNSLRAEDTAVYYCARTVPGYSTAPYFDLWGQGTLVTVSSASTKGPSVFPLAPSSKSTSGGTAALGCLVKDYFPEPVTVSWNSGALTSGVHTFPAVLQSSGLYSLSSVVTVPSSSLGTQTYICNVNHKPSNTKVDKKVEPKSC
light: DIQMTQSPSSVSASVGDRVTITCQSSPSVWSNFLSWYQQKPGKAPKLLIYEASKLTSGVPSRFSGSGSGTDFTLTISSLQPEDFATYYCGGGYSSISDTTFGGGTKVEIKRTVAAPSVFIFPPSDEQLKSGTASVVCLLNNFYPREAKVQWKVDNALQSGNSQESVTEQDSKDSTYSLSSTLTLSKADYEKHKVYACEVTHQGLSSPVTKSFNRGEC
notes: also called CA645 Fab heavy chain with human IL-15 inserted into framework 3 with 2xG4S linker
Consider B2, for which the binding result in assay [1] is reported as “binds”.

B3: CA645/IL-15Fwk3 with bovine long linker (Fab)
heavy: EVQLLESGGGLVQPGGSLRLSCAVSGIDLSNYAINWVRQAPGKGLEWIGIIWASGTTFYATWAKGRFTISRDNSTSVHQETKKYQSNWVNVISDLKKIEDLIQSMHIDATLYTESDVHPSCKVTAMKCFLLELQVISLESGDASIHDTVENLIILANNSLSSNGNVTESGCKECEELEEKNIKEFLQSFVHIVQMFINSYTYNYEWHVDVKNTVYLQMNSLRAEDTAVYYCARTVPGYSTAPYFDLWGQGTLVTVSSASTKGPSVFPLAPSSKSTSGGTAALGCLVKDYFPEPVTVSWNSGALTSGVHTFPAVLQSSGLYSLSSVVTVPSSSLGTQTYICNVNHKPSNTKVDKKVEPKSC
light: DIQMTQSPSSVSASVGDRVTITCQSSPSVWSNFLSWYQQKPGKAPKLLIYEASKLTSGVPSRFSGSGSGTDFTLTISSLQPEDFATYYCGGGYSSISDTTFGGGTKVEIKRTVAAPSVFIFPPSDEQLKSGTASVVCLLNNFYPREAKVQWKVDNALQSGNSQESVTEQDSKDSTYSLSSTLTLSKADYEKHKVYACEVTHQGLSSPVTKSFNRGEC
notes: also called CA645 Fab heavy chain with human IL-15 inserted into framework 3 with bovine long linker
In the case of B3, in assay [1], the binding result is listed as “binds”.

B4: CA645 Fab-Fwk3 CA497 dsscFv (vHvL) (bispecific antibody)
heavy: EVQLLESGGGLVQPGGSLRLSCAVSGIDLSNYAINWVRQAPGKGLEWIGIIWASGTTFYATWAKGRFTISRDNSGGGGSGGGGSEVQLVESGGGLVKPGGSLRLSCAASGVIFSDYYMAWVRQAPGKCLEWVASINFNADISYYRESVKGRFTISRDDSKNTLYLQMNSLKTEDTAVYYCTTDANRQNYDWFAYWGQGTLVTVSSGGGGSGGGGSGGGGSAIQLTQSPSSLSASVGDRVTITCKASESVSSSMYSYMHWYQQKPGKAPKLLIYRASNLESGVPSRFSGSGSGTDFTLTISSLQPEDFATYYCQQSWTAPRTFGCGTKVEIKGGGGSGGGGSKNTVYLQMNSLRAEDTAVYYCARTVPGYSTAPYFDLWGQGTLVTVSSASTKGPSVFPLAPSSKSTSGGTAALGCLVKDYFPEPVTVSWNSGALTSGVHTFPAVLQSSGLYSLSSVVTVPSSSLGTQTYICNVNHKPSNTKVDKKVEPKSC
light: DIQMTQSPSSVSASVGDRVTITCQSSPSVWSNFLSWYQQKPGKAPKLLIYEASKLTSGVPSRFSGSGSGTDFTLTISSLQPEDFATYYCGGGYSSISDTTFGGGTKVEIKRTVAAPSVFIFPPSDEQLKSGTASVVCLLNNFYPREAKVQWKVDNALQSGNSQESVTEQDSKDSTYSLSSTLTLSKADYEKHKVYACEVTHQGLSSPVTKSFNRGEC
In the case of B4, in the assay with human recombinant IL-17A, the “IL-17A EC50 (ng/ml), neutralisation of IL-17A (IL-6 secretion by Hela cells), with HSA” value stood at 8.7 ng/mL and the “IL-17A EC50 (ng/ml), neutralisation of IL-17A (IL-6 secretion by Hela cells), without HSA” value turned out to be 10.6 ng/mL.

B5: CA645/IL-15Fwk3 with bovine short linker (Fab)
heavy: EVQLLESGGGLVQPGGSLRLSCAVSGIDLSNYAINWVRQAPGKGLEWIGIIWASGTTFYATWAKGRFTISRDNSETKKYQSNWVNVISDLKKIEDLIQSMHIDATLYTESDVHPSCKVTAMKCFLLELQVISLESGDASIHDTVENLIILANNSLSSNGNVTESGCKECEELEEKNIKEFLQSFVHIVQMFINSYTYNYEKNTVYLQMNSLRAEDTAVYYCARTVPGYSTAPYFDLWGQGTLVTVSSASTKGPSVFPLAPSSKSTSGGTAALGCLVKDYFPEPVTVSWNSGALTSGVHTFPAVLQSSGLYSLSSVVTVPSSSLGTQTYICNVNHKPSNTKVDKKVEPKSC
light: DIQMTQSPSSVSASVGDRVTITCQSSPSVWSNFLSWYQQKPGKAPKLLIYEASKLTSGVPSRFSGSGSGTDFTLTISSLQPEDFATYYCGGGYSSISDTTFGGGTKVEIKRTVAAPSVFIFPPSDEQLKSGTASVVCLLNNFYPREAKVQWKVDNALQSGNSQESVTEQDSKDSTYSLSSTLTLSKADYEKHKVYACEVTHQGLSSPVTKSFNRGEC
notes: also called CA645 Fab heavy chain with human IL-15 inserted into framework 3 with bovine short linker
For the molecule B5, the binding result in assay [1] is “binds”.

B6: CA645/GM-CSFFwk3 (human) (CA645 Fab with human GM-CSF inserted into framework 3 of the VH domain) (Fab)
heavy: not shown
light: DIQMTQSPSSVSASVGDRVTITCQSSPSVWSNFLSWYQQKPGKAPKLLIYEASKLTSGVPSRFSGSGSGTDFTLTISSLQPEDFATYYCGGGYSSISDTTFGGGTKVEIKRTVAAPSVFIFPPSDEQLKSGTASVVCLLNNFYPREAKVQWKVDNALQSGNSQESVTEQDSKDSTYSLSSTLTLSKADYEKHKVYACEVTHQGLSSPVTKSFNRGEC
notes: also called CA645/hGM-CSF antibody fusion protein
With B6, the binding result in assay [2] is “binds”.

B7: CA645/GM-CSFCH1 (human) (CA645 Fab with human GM-CSF at the C-terminus of CH1, for comparison) (Fab, V domains shown)
VH: EVQLLESGGGLVQPGGSLRLSCAVSGIDLSNYAINWVRQAPGKGLEWIGIIWASGTTFYATWAKGRFTISRDNSKNTVYLQMNSLRAEDTAVYYCARTVPGYSTAPYFDLWGQGTLVTVSS
VL: DIQMTQSPSSVSASVGDRVTITCQSSPSVWSNFLSWYQQKPGKAPKLLIYEASKLTSGVPSRFSGSGSGTDFTLTISSLQPEDFATYYCGGGYSSISDTTFGGGTKVEIKR
notes: also called constant domain (CH1) fusion of the GM-CSF peptide (human)
On to B7, for which the binding result in assay [2] is “binds”.

B8: HyHEL5/VHH D3L11Fwk3 (anti-lysozyme HyHEL5 Fab with anti-lysozyme VHH D3L11 inserted into framework 3 of the light chain) (bispecific antibody)
heavy: EVQLQQSGAELMKPGASVKISCKASGYTFSDYWIEWVKQRPGHGLEWIGEILPGSGSTNYHERFKGKATFTADTSSSTAYMQLNSLTSEDSGVYYCLHGNYDFDGWGQGTTLTVSSASTKGPSVFPLAPSSKSTSGGTAALGCLVKDYFPEPVTVSWNSGALTSGVHTFPAVLQSSGLYSLSSVVTVPSSSLGTQTYICNVNHKPSNTKVDKKVEPKSC
light: DIVLTQSPAIMSASPGEKVTMTCSASSSVNYMYWYQQKSGTSPKRWIYDTSKLASGVPVRFSGSGSGSGGGGSDVQLVESGGGSVQAGGSLRLSCAASGSTDSIEYMTWFRQAPGKAREGVAALYTHTGNTYYTDSVKGRFTISQDKAKNMAYLRMDSVKSEDTAIYTCGATRKYVPVRFALDQSSYDYWGQGTQVTVSSGGGGSGGGGSGGGGSTSYSLTISSMETEDAATYYCQQWGRNPTFGGGTKLEIKRTVAAPSVFIFPPSDEQLKSGTASVVCLLNNFYPREAKVQWKVDNALQSGNSQESVTEQDSKDSTYSLSSTLTLSKADYEKHKVYACEVTHQGLSSPVTKSFNRGEC
notes: also called Antibody: HyHEL5 Fab, Framework 3 Insert: VHH D3L11
Consider B8, for which, in the assay with Lysozyme (R&D Systems), the Kd (as a rule, the free concentration of one partner at which half of the binding sites on the other are occupied at equilibrium, for simple one-to-one binding) turned out to be 0.026 nM.

B9: HyHEL5/VHH15Fwk3 (anti-lysozyme HyHEL5 Fab with anti-IL-6 VHH15 inserted into framework 3 of the light chain) (bispecific antibody)
heavy: EVQLQQSGAELMKPGASVKISCKASGYTFSDYWIEWVKQRPGHGLEWIGEILPGSGSTNYHERFKGKATFTADTSSSTAYMQLNSLTSEDSGVYYCLHGNYDFDGWGQGTTLTVSSASTKGPSVFPLAPSSKSTSGGTAALGCLVKDYFPEPVTVSWNSGALTSGVHTFPAVLQSSGLYSLSSVVTVPSSSLGTQTYICNVNHKPSNTKVDKKVEPKSC
light: DIVLTQSPAIMSASPGEKVTMTCSASSSVNYMYWYQQKSGTSPKRWIYDTSKLASGVPVRFSGSGSGSGGGGSQVQLVESGGGSVQAGGSLRLSCVAASGYTGCTYDMRWYRQAPGKEREFVSGIDSDGRATYADSVKGRFTISQSNAKIAVYLQMDSLKLEDTAMYYCNLQCLRYPGEYYWGQGTQVTVSSGGGGSGGGGSGGGGSTSYSLTISSMETEDAATYYCQQWGRNPTFGGGTKLEIKRTVAAPSVFIFPPSDEQLKSGTASVVCLLNNFYPREAKVQWKVDNALQSGNSQESVTEQDSKDSTYSLSSTLTLSKADYEKHKVYACEVTHQGLSSPVTKSFNRGEC
notes: also called Antibody: HyHEL5 Fab, Framework 3 Insert: VHH15
With B9, the Kd with Lysozyme (R&D Systems) is 0.31 nM.

B10: CA645/VHH D3L11Fwk3 (CA645 Fab with anti-lysozyme VHH D3L11 inserted into framework 3 of the light chain) (bispecific antibody)
heavy: EVQLLESGGGLVQPGGSLRLSCAVSGIDLSNYAINWVRQAPGKGLEWIGIIWASGTTFYATWAKGRFTISRDNSKNTVYLQMNSLRAEDTAVYYCARTVPGYSTAPYFDLWGQGTLVTVSSASTKGPSVFPLAPSSKSTSGGTAALGCLVKDYFPEPVTVSWNSGALTSGVHTFPAVLQSSGLYSLSSVVTVPSSSLGTQTYICNVNHKPSNTKVDKKVEPKSC
light: DIQMTQSPSSVSASVGDRVTITCQSSPSVWSNFLSWYQQKPGKAPKLLIYEASKLTSGVPSRFSGSGSGSGGGGSDVQLVESGGGSVQAGGSLRLSCAASGSTDSIEYMTWFRQAPGKAREGVAALYTHTGNTYYTDSVKGRFTISQDKAKNMAYLRMDSVKSEDTAIYTCGATRKYVPVRFALDQSSYDYWGQGTQVTVSSGGGGSGGGGSGGGGSTDFTLTISSLQPEDFATYYCGGGYSSISDTTFGGGTKVEIKRTVAAPSVFIFPPSDEQLKSGTASVVCLLNNFYPREAKVQWKVDNALQSGNSQESVTEQDSKDSTYSLSSTLTLSKADYEKHKVYACEVTHQGLSSPVTKSFNRGEC
notes: also called Antibody: CA645 Fab, Framework 3 Insert: VHH D3L11
On to B10, for which the equilibrium dissociation constant (Kd) with Lysozyme (R&D Systems) worked out at 0.48 nM.

Source of the values: US20220073581A1 (UCB, published 2022).
